{"source": "patent US20230192824A1", "about": "(UNITED STATES OF AMERICA AS REPRESENTED BY THE SECRETARY OF …, published 2023)", "binders": {"B1": {"name": "anti-CfaE mouse mAb P1F9 (antibody, V domains shown)", "VH": "QVQLQQPGAELVKPGASVKLSCKASGYTFTSYWMHWVRQRPGQGLDWIGEIDPSDSYINYNQKFKGKATLTVDKSSSTAYMQLSSLTSEDSAVYYCGRKSLGVSVLAYWGQGTPVTVSA", "VL": "DIVMTQSHKFMSTSVGDRVSISCTASQDVNAAVAWYQQKPGQSPKLLIYWASTRHTGVPDRFTGSGSGTDYTLTISSVQAEDLALYYCQQHYSTPLTFGAGTKLELK"}}, "key": {"[1]": {"molecular_target": "T1, CotD, tip adhesin of CS2 fimbriae on wild type ETEC strain C91f (Escherichia coli (ETEC) strain C91f)", "T1 chain": "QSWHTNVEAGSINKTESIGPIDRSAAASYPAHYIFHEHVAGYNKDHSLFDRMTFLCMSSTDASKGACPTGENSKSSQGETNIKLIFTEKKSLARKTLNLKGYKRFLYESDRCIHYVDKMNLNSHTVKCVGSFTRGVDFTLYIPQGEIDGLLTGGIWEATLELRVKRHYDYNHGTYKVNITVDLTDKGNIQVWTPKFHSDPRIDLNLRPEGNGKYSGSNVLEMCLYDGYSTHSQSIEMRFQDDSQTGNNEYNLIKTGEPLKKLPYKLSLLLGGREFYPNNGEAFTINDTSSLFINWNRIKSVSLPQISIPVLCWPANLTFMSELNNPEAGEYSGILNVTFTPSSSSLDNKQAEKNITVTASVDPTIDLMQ", "experiment": "cell-based or functional assay"}, "[2]": {"molecular_target": "CsfD, tip adhesin of CS4 fimbriae on wild type ETEC strain BANG10-SP (Escherichia coli (ETEC) strain BANG10-SP)", "experiment": "cell-based or functional assay"}, "[3]": {"molecular_target": "T2, CsbD, tip adhesin of CS17 fimbriae on wild type ETEC strain WS6788A (Escherichia coli (ETEC) strain WS6788A)", "T2 chain": "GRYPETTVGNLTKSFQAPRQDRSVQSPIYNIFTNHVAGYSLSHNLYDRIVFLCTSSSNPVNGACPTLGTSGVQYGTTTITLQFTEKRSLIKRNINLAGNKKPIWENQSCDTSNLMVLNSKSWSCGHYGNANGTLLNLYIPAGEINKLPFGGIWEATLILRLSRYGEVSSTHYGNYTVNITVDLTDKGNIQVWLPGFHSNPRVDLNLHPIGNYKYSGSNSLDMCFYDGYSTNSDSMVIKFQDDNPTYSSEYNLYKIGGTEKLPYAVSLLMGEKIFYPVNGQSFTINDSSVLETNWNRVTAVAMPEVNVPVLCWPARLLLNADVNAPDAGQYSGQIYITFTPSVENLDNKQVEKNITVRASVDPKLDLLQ", "experiment": "cell-based or functional assay"}, "[4]": {"molecular_target": "T3, CfaE, tip adhesin of CFA/I fimbriae on wild type ETEC strain H10407 (Escherichia coli (ETEC) strain H10407, UniProt P25734 23-360)", "T3 sequence": "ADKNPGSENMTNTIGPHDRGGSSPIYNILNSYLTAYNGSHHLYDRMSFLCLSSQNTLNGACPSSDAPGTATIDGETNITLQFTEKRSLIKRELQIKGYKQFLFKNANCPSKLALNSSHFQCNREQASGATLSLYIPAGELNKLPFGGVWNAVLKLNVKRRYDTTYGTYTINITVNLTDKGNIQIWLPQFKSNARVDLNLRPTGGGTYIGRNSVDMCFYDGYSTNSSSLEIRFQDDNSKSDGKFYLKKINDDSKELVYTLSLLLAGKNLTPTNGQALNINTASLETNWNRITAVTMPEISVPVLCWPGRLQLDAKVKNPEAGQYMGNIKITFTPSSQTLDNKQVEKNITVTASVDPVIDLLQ", "experiment": "cell-based or functional assay"}, "[5]": {"molecular_target": "CsuD, tip adhesin of CS14 fimbriae on wild type ETEC strain WS3294A (Escherichia coli (ETEC) strain WS3294A)", "experiment": "cell-based or functional assay"}, "[6]": {"molecular_target": "CooD, tip adhesin of CS1 fimbriae on wild type ETEC strain WS1974A (Escherichia coli (ETEC) strain WS1974A)", "experiment": "cell-based or functional assay"}, "[7]": {"molecular_target": "T4, CsbD L85I/H144A, tip adhesin of CS17 fimbriae on wild type ETEC strain LSN02-013966/A (Escherichia coli (ETEC) strain …)", "T4 chain": "T2 chain with L67I, H126A", "experiment": "cell-based or functional assay"}, "[8]": {"molecular_target": "T5, dsc19CsbD6xhis (WS6788A), donor strand complemented recombinant CS17 fimbrial tip adhesin CsbD (Escherichia coli (ETEC) strain WS6788A)", "T5 construct": "also called dscCsbD; primary CsbD", "T5 chain": "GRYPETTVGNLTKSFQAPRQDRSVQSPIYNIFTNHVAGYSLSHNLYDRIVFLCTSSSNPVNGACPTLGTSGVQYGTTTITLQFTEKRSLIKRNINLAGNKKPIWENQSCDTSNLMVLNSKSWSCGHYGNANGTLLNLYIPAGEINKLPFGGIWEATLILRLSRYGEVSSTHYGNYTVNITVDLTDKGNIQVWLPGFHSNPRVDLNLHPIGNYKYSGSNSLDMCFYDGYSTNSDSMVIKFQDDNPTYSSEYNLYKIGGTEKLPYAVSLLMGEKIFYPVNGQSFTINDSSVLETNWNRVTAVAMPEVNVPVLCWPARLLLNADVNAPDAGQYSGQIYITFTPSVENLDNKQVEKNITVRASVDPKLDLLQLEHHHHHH", "experiment": "ELISA on coated adhesin"}, "[9]": {"molecular_target": "T6, dsc19CotD6xhis (C91f), donor strand complemented recombinant CS2 fimbrial tip adhesin CotD (Escherichia coli (ETEC) strain C91f)", "T6 construct": "also called dscCotD; CS2 adhesin", "T6 chain": "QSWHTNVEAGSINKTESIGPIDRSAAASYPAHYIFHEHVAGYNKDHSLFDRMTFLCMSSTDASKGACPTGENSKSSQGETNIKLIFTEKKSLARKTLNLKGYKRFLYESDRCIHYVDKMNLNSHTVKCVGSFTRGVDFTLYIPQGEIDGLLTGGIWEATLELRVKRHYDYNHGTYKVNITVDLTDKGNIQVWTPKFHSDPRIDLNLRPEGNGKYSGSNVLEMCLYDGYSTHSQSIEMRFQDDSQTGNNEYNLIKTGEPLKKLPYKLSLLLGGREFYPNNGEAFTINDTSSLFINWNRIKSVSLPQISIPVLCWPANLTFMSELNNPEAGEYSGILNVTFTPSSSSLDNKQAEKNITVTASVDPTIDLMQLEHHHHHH", "experiment": "ELISA on coated adhesin"}, "[10]": {"molecular_target": "T7, CfaE PD, pilin domain (residues 203-383) of CfaE (Escherichia coli (ETEC) strain H10407)", "T7 construct": "Tag not written for this construct; also called CfaE pilin domain", "T7 chain": "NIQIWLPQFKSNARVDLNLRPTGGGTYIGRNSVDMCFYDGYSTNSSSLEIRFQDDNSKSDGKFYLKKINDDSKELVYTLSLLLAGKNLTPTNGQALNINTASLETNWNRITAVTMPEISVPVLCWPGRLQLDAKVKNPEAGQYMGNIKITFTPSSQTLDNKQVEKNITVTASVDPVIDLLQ", "experiment": "ELISA on coated CfaE domains (FIG. 10)"}}, "note": "Residue numbers refer to the chain shown, from its start."}
{"binder": "B1", "values": [{"measurement": "MIC in HAI", "setting": "[1]", "value": "> 250", "unit": "µg/mL"}, {"measurement": "MIC in HAI", "setting": "[2]", "value": "> 250", "unit": "µg/mL"}, {"measurement": "MIC in HAI", "setting": "[3]", "value": "> 250", "unit": "µg/mL"}, {"measurement": "MIC in HAI", "setting": "[4]", "value": 1.5, "unit": "µg/mL"}, {"measurement": "MIC in HAI", "setting": "[5]", "value": "> 250", "unit": "µg/mL"}, {"measurement": "MIC in HAI", "setting": "[6]", "value": "> 250", "unit": "µg/mL"}, {"measurement": "MIC in HAI", "setting": "[7]", "value": "> 250", "unit": "µg/mL"}, {"measurement": "binding result", "setting": "[8]", "value": "no binding (tested: mAb 2 ug/ml)"}, {"measurement": "binding result", "setting": "[9]", "value": "no binding (tested: mAb 2 ug/ml)"}, {"measurement": "binding result", "setting": "[10]", "value": "binds"}]}
